Assay results as given in patent US20210179728A1 (OSE IMMUNOTHERAPEUTICS, published 2021).
Substitutions are numbered along the chain they refer to. Names may count otherwise. Values belong to the binder of their own block, whether it stands above or below them.

Assays:
[1] = biological target: T1, recombinant hSIRPa (Sino Biologicals, reference 11612-H08H) (human, UniProt P78324 31-370); test: ELISA on immobilized SIRPa-His, anti-human detection, DO 450nm [B,C, panel B table]
T1 construct: also called SIRPa-His; human SIRPa-His; not shown: His tag (histidine tail)

[2] = biological target: T1, recombinant hSIRPa (Sino Biologicals, …); test: ELISA on immobilized hSIRPa-His, anti-human IgG detection, second experiment; second experiment
Experimental: (§1) Method: The binding activity of the anti-SIRPa antibodies was assessed by ELISA.

[3] = biological target: T1, recombinant hSIRPa (Sino Biologicals, …); test: ELISA on immobilized hSIRPa-His, anti-human IgG detection, third experiment
Experimental: as §1

[4] = biological target: T1, recombinant hSIRPa (Sino Biologicals, …); test: SPR (Biacore); SIRPa-His immobilized on CM5 chip, antibody injected
Experimental: FIG. 2. Affinity analysis by Biacore of anti-SIRP antibodies on human SIRPa recombinant protein. SIRPa-His recombinant protein was immobilized onto a CM5 chip at 5 μg/ml (500 RU) and the indicated antibodies were added at different concentration.
Method: Recombinant hSIRPa (Sino Biologicals, Beijing, China; reference 11612-H08H) was immobilized into a CM5 sensor chip (GeHealthcare; France) at 5 μg/ml (500 RU) and antibodies were applied at different concentrations with a flow rate of 40 μl/min. Analysis was performed with a BIAcore 3000 (Biacore, GeHealthcare).

[5] = biological target: T2, recombinant hSIRPb-His (Antibodies-online, reference ABIN3077231) (human, UniProt Q5TFQ8 30-371); test: BLI (Blitz); SIRPb-His on Ni-NTA biosensor, antibody at 20 ug/ml [B, table A]
T2 construct: also called SIRPb-His (Blitz); not shown: His tag
Experimental: FIG. 7. (A) Affinity analysis by Blitz of anti-SIRP antibodies on human SIRPb recombinant protein. SIRPb-His recombinant protein was immobilized onto a NINTA biosensor and the indicated antibodies were added at 20 μg/ml. […] (B) Binding analysis of anti-SIRP antibodies (human SIRPb-His coating and anti-human kappa detection).
(§2) Method: This method was performed with a Blitz (Forte Bio; USA; reference C22-2 No 61010-1). Recombinant hSIRPb-His (Antibodies-online; USA; reference ABIN3077231) was immobilized at 10 μg/ml by histidine tail into a Ni-NTA biosensor (Forte Bio; USA; reference 18-0029) for 30 seconds. Then, an anti-SIRPa antibody was associated at 20 μg/mL for 120 seconds. The dissociation of anti-SIRPa antibody was made in kinetics buffer for 120 seconds. Analysis of data was made with the Blitz pro 1.2 software, which calculated association constant (ka) and dissociation constant (kd) and determined the affinity constant KD […].

[6] = biological target: T1, recombinant hSIRPa (Sino Biologicals, …); test: ELISA on immobilized hSIRPa-His, anti-human IgG detection, first experiment; first experiment
Experimental: as §1

[7] = biological target: T3, recombinant hSIRPg-His (Sino Biologicals, reference 11828-H08H) (human, UniProt Q9P1W8 29-360); test: BLI (Blitz); SIRPg-His on Ni-NTA biosensor, antibody at 10 ug/ml or 20 ug/ml (Example 9) [B, table A]
T3 construct: also called human SIRPg-His; not shown: His tag
Experimental: FIG. 8. (A) Affinity analysis by Blitz of anti-SIRP antibodies on human SIRPg recombinant protein. SIRPg-His recombinant protein was immobilized onto a NINTA biosensor and the indicated antibodies were added at 10 μg/ml. […] (B) Binding analysis by ELISA assay of anti-SIRP antibodies on SIRPg (human SIRPg-His coating and anti-human kappa detection).
as §2, with “hSIRPg-His (Sino Biologicals, Beijing, China;” for “hSIRPb-His (Antibodies-online; USA;”, “11828-H08H)” for “ABIN3077231)”

[8] = biological target: T1, recombinant hSIRPa (Sino Biologicals, …); test: competition ELISA on immobilized SIRPa-His; competitor biotinylated CD47-Fc at 6 ug/ml, streptavidin-peroxidase [second experiment table]
Experimental: (§3) Method: For competitive ELISA assay, recombinant hSIRPa (Sino Biologicals, Beijing, China; reference 11612-H08H) was immobilized on plastic at 0.5 μg/ml in carbonate buffer (pH9.2).

[9] = biological target: T1, recombinant hSIRPa (Sino Biologicals, …); test: ELISA on immobilized SIRPa-His, peroxidase anti-human IgG, DO 450nm [panel 4-1BBL]
Experimental: (§4) Method: For ELISA assay, recombinant hSIRPa (Sino Biologicals, Beijing, China; reference 11612-H08H) was immobilized on plastic at 0.5 μg/ml in carbonate buffer (pH9.2) and different modified anti-SIRPa antibodies were added to measure binding to SIRPa.

4-1BBFcHis = biological target: T4, 4-1BBFcHis (UniProt Q07011 24-186); test: ELISA: modified antibody (concentration on the axis) captured on SIRPa-His, then 4-1BBFcHis, detected with mouse anti-His [panel 4-1BBL]
T4 construct: not shown: Fc and His tag; not specified
Excerpt: (§5) FIG. 24. Ligand binding assay with the different modified anti-SIRPa antibodies by ELISA.

[10] = biological target: T1, recombinant hSIRPa (Sino Biologicals, …); test: ELISA on immobilized SIRPa-His, peroxidase anti-human IgG, DO 450nm [all panels]
Experimental: as §4

[11] = biological target: T1, recombinant hSIRPa (Sino Biologicals, …); test: ELISA on immobilized SIRPa-His, peroxidase anti-human IgG, DO 450nm [panel CD86]
Experimental: as §4

[12] = biological target: T1, recombinant hSIRPa (Sino Biologicals, …); test: competition ELISA on coated SIRPa-His; competitor biotinylated CD47-Fc at 6 ug/ml, streptavidin-peroxidase [panel CD86]
Experimental: as §3

CTLA4-Fc = biological target: T5, CTLA4-Fc (human, UniProt P16410 36-161, limits assumed); test: ELISA: modified antibody (concentration on the axis) captured on SIRPa-His, then CTLA4-Fc, detected with mouse anti-human CTLA4 [panel CD86]
T5 construct: not shown: Fc; not specified
Excerpt: as §5

EC50 [1]: 4.61 ng/mL
B1: HELA (antibody, V domains shown)
VH: EVQLVQSGAEVKKPGESLRISCKASGYSFTSYWVHWVRQMPGKGLEWMGNIDPSDSDTHYSPSFQGHVTLSVDKSISTAYLQLSSLKASDTAMYYCVRGGTGTLAWFAYWGQGTLVTVSS
VL: DVVMTQSPLSLPVTLGQPASISCRSSQSLVHSYGNTYLYWYQQRPGQSPRLLIYRVSNRFSGVPDRFSGSGSGTDFTLKISRVEAEDVGVYFCFQGTHVPYTFGGGTKVEIK
notes: also called humanized 18D5 variant HELA

EC50 [2]: 5.6 ng/mL
B2: HCLA (antibody, human IgG4 S228P, kappa, V domains shown)
VH: B1 VH with L104M
VL: DVVMTQSPLSLPVTLGQPASISCRSSQSLVHSYGNTYLYWYQQRPGQSPRLLIYRVSNRFSGVPDRFSGSGSGTDFTLKISRVEAEDVGVYFCFQGTHVPYTFGGGTKVEIKR
notes: humanized 18D5 variant; also called humanized 18D5 variant HCLA

EC50 [3]: 2.74 ng/mL | Kd [4]: 0.344 nM | koff [4]: 5.14e-05 s⁻¹ | kon [4]: 149000 M⁻¹ s⁻¹ | Kd [5]: 15.7 nM | koff [5]: 0.00138 s⁻¹ | kon [5]: 88400 M⁻¹ s⁻¹ | EC50 [6]: 2.9 ng/mL | EC50 [2]: 4.06 ng/mL | Kd [7]: 64.8 nM | koff [7]: 0.00319 s⁻¹ | kon [7]: 49300 M⁻¹ s⁻¹ | IC50 [8]: 304 ng/mL
B3: chimeric mouse/human 18D5 antibody (antibody, human IgG4 S228P, kappa)
heavy: not shown
light: DVVMTQTPLSLPVSLGDQASISCRSSQSLVHSYGNTYLYWYLQKPGQSPKLLIYRVSNRFSGVPDRFSGSGSGTDFTLKISRVEAEDLGVYFCFQGTHVPYTFGSGTKLEIKRTVAAPSVFIFPPSDEQLKSGTASVVCLLNNFYPREAKVQWKVDNALQSGNSQESVTEQDSKDSTYSLSSTLTLSKADYEKHKVYACEVTHQGLSSPVTKSFNRGEC
notes: mouse variable domains on human IgG4m (S228P) / kappa constant domains; also called chimeric antibody; chimeric 18D5

EC50 (read off the curve) [9]: ~7 ng/mL | EC50 (read off the curve) (4-1BBFcHis): ~200 ng/mL
B4: modified anti-SIRPa HEFLB antibody with ECD of 4-1BBL on the light chain (antibody, human IgG4 S228P, kappa)
heavy: not shown
light: DVVMTQSPLSLPVTLGQPASISCRSSQSLVHSYGNTYLYWFQQRPGQSPRLLIYRVSNRFSGVPDRFSGSGSGTDFTLKISRVEAEDVGVYYCFQGTHVPYTFGGGTKVEIKRTVAAPSVFIFPPSDEQLKSGTASVVCLLNNFYPREAKVQWKVDNALQSGNSQESVTEQDSKDSTYSLSSTLTLSKADYEKHKVYACEVTHQGLSSPVTKSFNRGECGGGGSGGGGSGGGGSREGPELSPDDPAGLLDLRQGMFAQLVAQNVLLIDGPLSWYSDPGLAGVSLTGGLSYKEDTKELVVAKAGVYYVFFQLELRRVVAGEGSGSVSLALHLQPLRSAAGAAALALTVDLPPASSEARNSAFGFQGRLLHLSAGQRLGVHLHTEARARHAWQLTQGATVLGLFRVTPEIPAGLPSPRSE
notes: as m32, ECD of 4-1BBL; also called VH+VLprot (4-1BBL); HEF + LB-4-1BBL

Kd [4]: 0.289 nM | koff [4]: 0.000189 s⁻¹ | kon [4]: 654000 M⁻¹ s⁻¹ | Kd [5]: 86.9 nM | koff [5]: 0.00171 s⁻¹ | kon [5]: 19400 M⁻¹ s⁻¹ | EC50 [6]: 4.4 ng/mL | EC50 (read off the curve) [10]: ~10 ng/mL | IC50 [8]: 186 ng/mL
B5: HEFLB (antibody, human IgG4 S228P, kappa)
heavy: not shown
light: DVVMTQSPLSLPVTLGQPASISCRSSQSLVHSYGNTYLYWFQQRPGQSPRLLIYRVSNRFSGVPDRFSGSGSGTDFTLKISRVEAEDVGVYYCFQGTHVPYTFGGGTKVEIKRTVAAPSVFIFPPSDEQLKSGTASVVCLLNNFYPREAKVQWKVDNALQSGNSQESVTEQDSKDSTYSLSSTLTLSKADYEKHKVYACEVTHQGLSSPVTKSFNRGEC
notes: humanized 18D5 variant; IgG4m (S228P) / kappa; also called anti-SIRPa HEFLB

EC50 (read off the curve) [11]: ~9 ng/mL | IC50 (read off the curve) [12]: ~200 ng/mL | binding result (CTLA4-Fc): binds
B6: modified anti-SIRPa HEFLB antibody with ECD of CD86 on the heavy chain (antibody, human IgG4 S228P, kappa)
heavy: not shown
light: B5 light
notes: as m25, ECD of CD86; also called VHprot+VL (CD86); VH-CD86

EC50 (read off the curve) [11]: ~8 ng/mL | IC50 (read off the curve) [12]: ~200 ng/mL | binding result (CTLA4-Fc): binds
B7: modified anti-SIRPa HEFLB antibody with ECD of CD86 on the light chain (antibody, human IgG4 S228P, kappa)
heavy: not shown
light: DVVMTQSPLSLPVTLGQPASISCRSSQSLVHSYGNTYLYWFQQRPGQSPRLLIYRVSNRFSGVPDRFSGSGSGTDFTLKISRVEAEDVGVYYCFQGTHVPYTFGGGTKVEIKRTVAAPSVFIFPPSDEQLKSGTASVVCLLNNFYPREAKVQWKVDNALQSGNSQESVTEQDSKDSTYSLSSTLTLSKADYEKHKVYACEVTHQGLSSPVTKSFNRGECGGGGSGGGGSGGGGSAPLKIQAYFNETADLPCQFANSQNQSLSELVVFWQDQENLVLNEVYLGKEKFDSVHSKYMGRTSFDSDSWTLRLHNLQIKDKGLYQCIIHHKKPTGMIRIHQMNSELSVLANFSQPEIVPISNITENVYINLTCSSIHGYPEPKKMSVLLRTKNSTIEYDGVMQKSQDNVTELYDVSISLSVSFPDVTSNMTIFCILETDKTRLLSSPFSIELEDPQPPPDH
notes: as m32, ECD of CD86; also called VH+VLprot (CD86); HEF + LB-CD86
